The results in this text go back to patent US20120141504A1 (MAYO FOUNDATION FOR MEDICAL EDUCATION AND RESEARCH, published 2012).

The target in this assay is T1, human B7-H3.1 expressed on 293 cells transfected with pcDNA/B7-H3 (human, UniProt Q5ZPR3 29-534).
T1 sequence: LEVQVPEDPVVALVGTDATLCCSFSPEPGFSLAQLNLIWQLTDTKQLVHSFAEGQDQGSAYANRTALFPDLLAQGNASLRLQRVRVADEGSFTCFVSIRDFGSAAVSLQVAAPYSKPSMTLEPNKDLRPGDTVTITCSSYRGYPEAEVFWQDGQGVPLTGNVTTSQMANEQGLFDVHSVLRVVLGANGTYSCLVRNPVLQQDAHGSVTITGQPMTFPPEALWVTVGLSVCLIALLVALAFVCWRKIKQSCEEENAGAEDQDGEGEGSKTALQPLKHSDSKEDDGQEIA
Nature of the assay: flow cytometry on transfected 293 cells.

Method: After a 45 min incubation, cells were washed and cultured for 45 min with fluorescein isothiocyanate (FITC)-conjugated goat anti-mouse Ig F(ab′)₂ (BioSource, Camarillo, Calif.). For two color staining, cells were washed and further incubated with phycoerythrin (PE)-conjugated mAb specific for CD3, CD14, or CD19 (PharMingen, San Diego, Calif.). For the analysis of CD3+, CD19+, and CD 14+ cells, peripheral blood mononuclear cells (PBMC) (untreated or activated as described below) were stained with anti-B3-H7 antiserum (green fluorescence) and either anti-CD3, anti-CD19, or anti-CD14 monoclonal antibody (mAb) (orange fluorescence). The proportion of B7-H3 expressing cells (green fluorescence) within the CD3+, the CD19+, and the CD 14+ populations was assessed by gating the flow cytometer on the relevant populations (orange fluorescence). Expression of a B7-H3 counter-receptor was analyzed by incubation of cells with B7-H3Ig (5 μg/sample) with subsequent staining using FITC-conjugated goat anti-mouse Ig F(ab′)₂. Single or double stained cells were analyzed using the Becton Dickinson FACScan (Mountain View, Calif.).

B1: ICOSIg fusion protein (Fc fusion, UniProt Q9Y6W8 21-140, looked up)
chain: EINGSANYEMFIFHNGGVQILCKYPDIVQQFKMQLLKGGQILCDLTKTKGSGNTVSIKSLKFCHSQLSNNSVSFFLYNLDHSHANYYFCNLSIFDPPPFKVTLTGGYLHIYESQLCCQLK
notes: extracellular domain; Described as an analogous fusion protein prepared by a method similar to that for B7-H3Ig (extracellular domain fused to mouse IgG2a Fc); not shown: Fc constant region of mouse IgG2a
Regarding B1, the binding result is reported as “no binding (tested: 5 µg/sample)”.
